# Patent publication US20220072157
# B1: Complement Factor I (CFI) (protein)
# chain: KVTYTSQEDLVEKKCLAKKYTHLSCDKVFCQPWQRCIEGTCVCKLPYQCPKNGTAVCATNRRSFPTYCQQKSLECLHPGTKFLNNGTCTAEGKFSVSLKHGNTDSEGIVEVKLVDQDKTMFICKSSWSMREANVACLDLGFQQGADTQRRFKLSDLSINSTECLHVHCRGLETSLAECTFTKRRTMGYQDFADVVCYTQKADSPMDDFFQCVNGKYISQMKACDGINDCGDQSDELCCKACQGKGFHCKSGVCIPSQYQCNGEVDCITGEDEVGCAGFASVTQEETEILTADMDAERRRIKSLLPKLSCGVKNRMHIRRKRIVGGKRAQLGDLPWQVAIKDASGITCGGIYIGGCWILTAAHCLRASKTHRYQIWTTVVDWIHPDLKRIVIEYVDRIIFHENYNAGTYQNDIALIEMKKDGNKKDCELPRSIPACVPWSPYLFQPNDTCIVSGWGREKDNERVFSLQWGEVKLISNCSKFYGNRFYEKEMECAGTYDGSIDACKGDSGGPLVCMDANNVTYVWGVVSWGENCGKPEFPGVYTKVANYFDWISYHVGRPFISQYNV
# Biological target: C3b, P01024
# Sequence (P01024 whole entry, looked up): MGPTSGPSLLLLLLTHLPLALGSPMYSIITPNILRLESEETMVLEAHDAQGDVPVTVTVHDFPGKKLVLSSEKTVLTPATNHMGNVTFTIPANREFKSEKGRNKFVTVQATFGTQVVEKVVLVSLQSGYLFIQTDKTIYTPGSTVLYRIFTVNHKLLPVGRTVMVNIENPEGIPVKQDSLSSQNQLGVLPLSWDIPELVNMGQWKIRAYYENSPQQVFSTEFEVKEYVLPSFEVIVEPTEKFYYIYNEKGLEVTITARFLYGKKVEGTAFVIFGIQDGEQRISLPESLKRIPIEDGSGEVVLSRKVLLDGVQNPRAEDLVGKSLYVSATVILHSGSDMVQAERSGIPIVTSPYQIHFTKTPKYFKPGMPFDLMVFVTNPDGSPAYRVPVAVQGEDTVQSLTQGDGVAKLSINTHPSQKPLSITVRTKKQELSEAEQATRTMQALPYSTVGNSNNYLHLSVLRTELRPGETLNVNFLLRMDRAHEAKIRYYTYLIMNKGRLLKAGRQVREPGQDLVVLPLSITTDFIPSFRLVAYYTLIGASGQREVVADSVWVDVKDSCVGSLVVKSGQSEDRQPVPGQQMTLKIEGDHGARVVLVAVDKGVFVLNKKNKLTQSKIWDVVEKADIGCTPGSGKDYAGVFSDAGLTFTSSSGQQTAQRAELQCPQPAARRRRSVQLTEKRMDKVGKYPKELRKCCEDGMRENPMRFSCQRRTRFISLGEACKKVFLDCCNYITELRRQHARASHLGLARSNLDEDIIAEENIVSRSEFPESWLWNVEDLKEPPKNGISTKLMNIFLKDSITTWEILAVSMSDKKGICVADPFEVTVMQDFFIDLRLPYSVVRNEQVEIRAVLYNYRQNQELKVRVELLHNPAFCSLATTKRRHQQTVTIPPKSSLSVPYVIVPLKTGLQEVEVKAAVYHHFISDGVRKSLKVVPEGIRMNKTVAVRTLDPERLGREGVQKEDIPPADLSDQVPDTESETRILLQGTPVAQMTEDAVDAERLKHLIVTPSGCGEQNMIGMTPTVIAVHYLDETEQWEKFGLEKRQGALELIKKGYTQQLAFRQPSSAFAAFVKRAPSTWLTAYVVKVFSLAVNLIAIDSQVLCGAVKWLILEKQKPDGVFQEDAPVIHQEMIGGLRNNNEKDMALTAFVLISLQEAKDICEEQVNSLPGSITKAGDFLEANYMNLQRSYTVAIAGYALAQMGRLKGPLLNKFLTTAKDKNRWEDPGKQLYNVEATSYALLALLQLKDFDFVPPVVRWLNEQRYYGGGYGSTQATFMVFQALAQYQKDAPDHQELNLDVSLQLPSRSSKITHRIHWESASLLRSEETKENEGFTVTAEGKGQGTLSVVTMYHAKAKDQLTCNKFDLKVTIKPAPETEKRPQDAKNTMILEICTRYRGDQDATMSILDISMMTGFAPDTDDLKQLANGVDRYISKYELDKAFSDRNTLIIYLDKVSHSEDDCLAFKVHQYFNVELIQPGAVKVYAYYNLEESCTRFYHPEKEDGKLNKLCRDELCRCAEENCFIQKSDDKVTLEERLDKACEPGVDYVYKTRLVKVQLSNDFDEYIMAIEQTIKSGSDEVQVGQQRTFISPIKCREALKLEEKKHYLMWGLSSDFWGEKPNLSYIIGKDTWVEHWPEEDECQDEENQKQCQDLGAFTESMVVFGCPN
protein,measurement,value
B1,"cleavage of C3b to iC3b quantified by ELISA (cofactor assay; CFI and C3b fixed, CFH or FHL1 titrated)",a minimum functional CFI:CFH/FHL1 molar ratio is 1:2
